The target in experiment [1] is T1, Jupiter microtubule associated homolog 2 (human, UniProt Q9H910 1-190).
T1 construct: on protein array; also called HN1L
T1 sequence: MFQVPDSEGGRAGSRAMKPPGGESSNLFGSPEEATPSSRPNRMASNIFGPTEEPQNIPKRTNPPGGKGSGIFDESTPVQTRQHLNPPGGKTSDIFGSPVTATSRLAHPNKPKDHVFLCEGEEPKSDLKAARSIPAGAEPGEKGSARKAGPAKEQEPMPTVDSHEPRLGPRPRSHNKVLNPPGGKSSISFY
Put plainly: protein array.

Experiment [2] concerns the target T2, endosome associated trafficking regulator 1, transcript variant 2 (human, UniProt Q96C92 59-435).
T2 construct: on protein array; also called SDCCAG3
T2 chain: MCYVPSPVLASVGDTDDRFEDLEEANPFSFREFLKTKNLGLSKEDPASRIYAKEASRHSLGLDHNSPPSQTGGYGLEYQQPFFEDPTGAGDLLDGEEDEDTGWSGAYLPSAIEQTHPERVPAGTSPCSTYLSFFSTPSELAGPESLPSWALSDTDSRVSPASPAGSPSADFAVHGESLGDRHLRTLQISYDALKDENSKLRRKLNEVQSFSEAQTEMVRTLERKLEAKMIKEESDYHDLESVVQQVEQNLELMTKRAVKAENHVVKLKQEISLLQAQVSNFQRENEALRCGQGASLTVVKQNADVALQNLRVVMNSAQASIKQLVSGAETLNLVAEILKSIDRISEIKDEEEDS
Put plainly: protein array.

In experiment [3] the target is T3, endosome associated trafficking regulator 1, transcript variant 2 (human, UniProt Q96C92 59-435).
T3 construct: HuProt array protein, full-length recombinant from yeast; also called SDCCAG3
T3 chain: T2 chain

The target in experiment [4] is T4, kelch like ECH associated protein 1, transcript variant 1 (human, UniProt Q14145 1-624).
T4 construct: HuProt array protein, full-length recombinant from yeast; also called KEAP1
T4 sequence (Q14145 whole entry, change not shown): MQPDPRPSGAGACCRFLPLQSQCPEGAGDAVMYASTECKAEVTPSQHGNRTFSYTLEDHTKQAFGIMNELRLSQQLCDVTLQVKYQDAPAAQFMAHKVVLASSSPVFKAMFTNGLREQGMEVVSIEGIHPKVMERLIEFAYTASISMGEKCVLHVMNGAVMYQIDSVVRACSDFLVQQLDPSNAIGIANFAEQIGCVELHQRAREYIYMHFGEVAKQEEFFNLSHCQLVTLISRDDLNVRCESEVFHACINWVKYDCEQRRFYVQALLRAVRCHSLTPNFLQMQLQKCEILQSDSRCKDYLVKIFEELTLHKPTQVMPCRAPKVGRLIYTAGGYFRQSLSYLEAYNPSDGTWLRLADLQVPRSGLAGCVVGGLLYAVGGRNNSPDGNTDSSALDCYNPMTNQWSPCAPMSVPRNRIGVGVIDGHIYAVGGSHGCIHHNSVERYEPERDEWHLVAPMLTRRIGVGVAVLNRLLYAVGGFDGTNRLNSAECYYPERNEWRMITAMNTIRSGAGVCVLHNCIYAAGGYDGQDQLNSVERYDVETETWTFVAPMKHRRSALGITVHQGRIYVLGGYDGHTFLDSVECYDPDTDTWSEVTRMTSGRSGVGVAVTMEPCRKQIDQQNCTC

The target of experiment [5] is T5, kelch like ECH associated protein 1, transcript variant 1 (human, UniProt Q14145 1-624).
T5 construct: on protein array; also called KEAP1
The experiment is described as follows: protein array.
T5 sequence (Q14145 whole entry, change not shown): as above

Experiment [6] addresses T6, PNMA family member 5, transcript variant 2 (human, UniProt Q96PV4 1-448).
T6 construct: on protein array; also called PNMA5
Put plainly: protein array.
T6 sequence (Q96PV4 other isoform, or with tags, fused parts or gaps mutant limits assumed): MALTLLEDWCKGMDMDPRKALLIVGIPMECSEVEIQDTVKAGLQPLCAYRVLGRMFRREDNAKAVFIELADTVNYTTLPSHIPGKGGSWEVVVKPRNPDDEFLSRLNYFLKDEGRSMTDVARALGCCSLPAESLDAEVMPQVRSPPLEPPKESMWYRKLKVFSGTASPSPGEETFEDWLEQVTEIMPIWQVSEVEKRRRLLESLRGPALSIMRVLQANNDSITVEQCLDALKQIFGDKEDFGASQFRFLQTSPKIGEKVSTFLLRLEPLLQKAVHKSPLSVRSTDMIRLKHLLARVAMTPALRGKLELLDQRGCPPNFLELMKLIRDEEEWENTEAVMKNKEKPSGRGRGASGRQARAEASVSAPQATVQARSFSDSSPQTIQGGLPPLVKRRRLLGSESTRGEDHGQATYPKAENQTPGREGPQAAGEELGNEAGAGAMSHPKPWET

The target of experiment [7] is T7, PNMA family member 5, transcript variant 2 (human, UniProt Q96PV4 1-448).
T7 construct: HuProt array protein, full-length recombinant from yeast; also called PNMA5
T7 sequence (Q96PV4 other isoform, or with tags, fused parts or gaps mutant limits assumed): as above

Experiment [8] addresses T8, DEAD-box helicase 53 (human, UniProt Q86TM3 1-631).
T8 construct: on protein array; also called DDX53
The experiment is described as follows: protein array.
T8 sequence (Q86TM3 other isoform, or with tags, fused parts or gaps limits assumed): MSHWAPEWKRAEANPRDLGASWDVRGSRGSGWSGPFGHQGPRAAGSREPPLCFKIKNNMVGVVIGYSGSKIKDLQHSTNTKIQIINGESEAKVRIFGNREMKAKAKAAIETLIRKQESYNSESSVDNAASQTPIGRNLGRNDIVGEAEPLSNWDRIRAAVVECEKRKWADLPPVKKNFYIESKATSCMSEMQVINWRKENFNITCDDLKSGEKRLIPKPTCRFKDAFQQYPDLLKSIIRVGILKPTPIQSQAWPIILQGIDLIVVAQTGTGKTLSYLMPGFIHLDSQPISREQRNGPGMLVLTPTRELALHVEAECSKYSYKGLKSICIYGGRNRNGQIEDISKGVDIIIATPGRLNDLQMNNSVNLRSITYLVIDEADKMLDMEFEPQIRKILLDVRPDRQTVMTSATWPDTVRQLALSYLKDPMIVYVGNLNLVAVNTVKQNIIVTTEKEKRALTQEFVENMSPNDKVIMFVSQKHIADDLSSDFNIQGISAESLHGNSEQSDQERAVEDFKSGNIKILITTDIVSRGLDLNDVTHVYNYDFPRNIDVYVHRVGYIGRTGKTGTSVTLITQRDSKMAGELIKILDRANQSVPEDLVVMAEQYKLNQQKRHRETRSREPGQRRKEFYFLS

Experiment [9] has as its target T9, DEAD-box helicase 53 (human, UniProt Q86TM3 1-631).
T9 construct: also called DDX53
T9 sequence (Q86TM3 other isoform, or with tags, fused parts or gaps limits assumed): as above

The source of these data is patent publication US20220204643A1 (published 2022).

Read-outs that look alike come from different tables or passages of the source.

B1: TOVA1008 (antibody, V domains shown)
VH: ELQLVESGGGLVQPGGSLRLSCAASGFTFSSYWMSWVRQAPGKGLEWVANINQDGGEKYYVDSVKGRFTISRDNAKNSLYLQMNSLRAEDTAVYYCAHYYYDSSGYYQNAEYFQYWGQGTLVTVSS
VL: DIQMTQSPPSLSASVGDRVTITCQASQDISNYLNWYQQKPGKTPKLLIYAASTLETGVPSRFSGSGSGTDFTFTINSLQPEDIATYYCQQYDSLPLTFGGGTKVEIKR
notes: VH/VL tied via antigen in summary, not by name in this stretch
As to B1, the binding result in experiment [1] is given as “binds”.

B2: TMEL1025 (antibody, V domains shown)
VH: EVQLMESGGGLVQPGGSLRLSCAASGLTFSIYSMNWVRQAPGKGLEWVSYISRGSSVIYHADSVKGRFTISRDDGKNLLYLQMNSLRDDDTAMYYCSSGGSTSMVGRYWGQGSLVTVSS
VL: DVVMTQSPLYLPVTLGQPASISCRASQSLVYSDGNTYLNWVHQRPGQSPRRLIYMVSQRGSGVPDRFSGSGSDTDFTLKISRVEAEDVGVYYCMQGTHWSAFGQGTKLEIKR
notes: as for B1
With B2, in experiment [2], the binding result was “binds”.

B3: TMEL1025 (antibody, V domains shown)
VH: B2 VH
VL: B2 VL
notes: detected with anti-human IgG Fc
In the case of B3, the binding result in experiment [3] is listed as “binds”.

B4: TBRE1052 (antibody, V domains shown)
VH: PVQLIQSGAEVRKPGASVKVSCKVSGYTLSELSLHWVRQAPGKGLEWMGTFDPEDGETVYAQKFQGRVTVTEDTSTDTAYIDLSSLKSEDTAVYYCATDGPLHTSGLDYWGQGTLVTVSS
VL: EIVLTQSPATLSLSPGERATLSCRASQSISSNLAWYQQKPGQAPRLLIYDASNRATGIPARFSGSGSGTDFTLTISSLEPEDFAVYYCQQHSNWPELTFGGGTKVEIKR
notes: as for B3
With B4, the binding result in experiment [4] is “binds”.

B5: TBRE1052 (antibody, V domains shown)
VH: B4 VH
VL: B4 VL
notes: VH/VL only
As to B5, in experiment [5], the binding result is “binds”.

B6: TTES1011 (antibody, V domains shown)
VH: PVTLRESGPALVKPTQTLTLTCTFSGFSLSTSGMCVSWIRQPPGKALEWLARIDWDDDKYYSTSLKTRLTISKDTSKNQVVLTMTNMDPVDTATYYCARMQIVATTQTYYYYYGMDVWGQGTTVTVSS
VL: PAVLTQPPSVSGAPGQRVTISCTGSSSNIGAGYDVHWYQQLPGTAPKLLIYGNSNRPSGVPDRFSGSKSGTSASLAITGLQAEDEADYYCQSYDSSLSGSGVFGGGTKLTVLG
notes: as for B1
Consider B6, for which the binding result in experiment [1] was “binds”.

B7: TMES1001 (antibody, V domains shown)
VH: QVQLVQSGAEVKKPGASVKVSCKASGYTFTSYYMYWVRQAPGQGLEWMGIINPGGGSTSYAQKFQGRVTMTRDTSTSTVYMELSSLRSEDTAVYYCARVFRYGMDVWGQGTTVTVSS
VL: EIVMTQSPATLSVSPGERATLSCRASQSVSSNLAWYQQKPGQAPRLLIYGASTRATGLPARFSGSGSGTEFTLTISSLQSEDFAVYYCQSRGTFGGGTKVEIK
notes: as for B1
Consider B7, for which, in experiment [2], the binding result is listed as “binds”.

B8: TMES1001 (antibody, V domains shown)
VH: B7 VH
VL: B7 VL
notes: as for B3
Regarding B8, the binding result in [3] is “binds”.

B9: TBRE1011 (antibody, V domains shown)
VH: PVLLQESGPGLVKPSETLSLTCTVSGDSMSFYYWTWIRQPPGKGLEWIGYIYYSGNRNYNPSLNSRVTISVDTSKNEVSLKLTSVTAADTAAYYCARGRGEMDVWGQGTTVTVSS
VL: QSVLTQPPSASGTPGQGVTISCSGTSANIGKNYVSWYQHLPGTAPRLLIYRIDQRPSGVPDRFSGSKSGTSASLAISGLRPEDEADYYCAAWDDSLSGPVFGGGTKLTVLG
notes: VH/VL only
Take B9: the binding result in experiment [6] is reported as “binds”.

B10: TBRE1011 (antibody, V domains shown)
VH: B9 VH
VL: B9 VL
notes: as for B3
Turning to B10, in [7], the binding result was “binds”.

B11: TSAR1004 (antibody, V domains shown)
VH: QVQLQESGPGLVKPSETLSLTCSVSGDSFSDYYWSWTRQSPGKGLEWLGYMFYGGSTNYNPSLKSRLTMSVDTSKKHVYLKLSSVTAADTAVYYCAASGYGDHVAYWGQGTLVTVSS
VL: DIVMTQSPDSLAVSLGERATLNCKSSQSVLSSYNNKDYLAWFQQKPGQPPQLLFYWASTRKTGVPDRFSGSGSGTDFTLTISSLQTEDVAVYYCQQYYSTPYTFGQGTKLEIK
notes: as for B1
Take B11: the binding result in [8] is “binds”.

B12: TSAR1004 (antibody, V domains shown)
VH: B11 VH
VL: B11 VL
As to B12, the binding result in experiment [9] is on record as “binds”.

B13: THNS1008 (antibody, V domains shown)
VH: QVQLQESGPGLVKPSQTLSLTCAVSGGSISSGGYPWSWIRQPPGKGLEWIGYISYSGSTDYNPSLKSRVTISLDTSSNQFSLNLSSLTAADTAVYYCARGAAFYYGMDVWGQGTTVTVSS
VL: DIQMTQSPSSLSASVGDRVTITCRASQSISTYLNWYQQKPGKAPKLLIYVASSLQSGVPSRFSGSGSGTDFTLTISGLQPEDFATYYCQQSYSTPYTFGQGTKLEIKR
notes: detected with anti-human IgG Fc; also called THINS1008
Turning to B13, the binding result in experiment [4] is given as “binds”.

B14: TOVA1001 (antibody, V domains shown)
VH: HVQLVQSGSELKKPGASVKLSCKASGYTFTNYAMNWVRQAPGQGLEWMGWINTNTGNPTYAQGFTGRFVFSLDTSVSTAYLQISSLKAEDTALYYCARDRPGDYWGQGTLVTVSS
VL: not shown
notes: as for B1
As to B14, the binding result in experiment [8] is “binds”.

B15: TOVA1001 (antibody, V domains shown)
VH: B14 VH
VL: not shown
Regarding B15, the binding result in experiment [9] is on record as “binds”.

B16: TCOL1007 (antibody, V domains shown)
VH: PVQLVESGGGVVQPGRSLRLSCAASGFTFSNYGMHWVRQAPGKGLEWVAVISDDGNDKDNADSVKGRFTISRDNSKNTLYLRMNSLRREDTAVYYCARDGFDYWGQGTLVTVSS
VL: DIVMTQTPLSMPVTPGEPASISCRSSQSLLDSDDGKTYLDWYLQKPGQSPQLLIYTVSYRASGVPDRFSGSGSGTDFTLKISRVEAEDVGVYYCMQRIEFPFTFGPGTKVDIKR
notes: as for B3
Regarding B16, the binding result in experiment [4] is recorded as “binds”.

B17: THNS1009 (antibody, V domains shown)
VH: QVQLQESGPGLVKPSETLSLTCTVSGGSISIYYWSWIRQPPGKGLEWIGYIYYSGSTNYNPSLKSRVTISVDTSKNQFSLKLRSVTAADTAVYYCARDTYGDPRGDYFDYWGQGTLVTVSS
VL: DIQMTQSPSTLSASVGDRVTITCRASQRISNWLAWYQQTPGKAPKLLIYKASSLESGVPSRFSGSGSGTEFTLTISSLQPDDFATYYCQQYSSSSPRTFGQGTKVEIKR
notes: as for B3
As for B17, in experiment [7], the binding result was “binds”.

B18: THNS1009 (antibody, V domains shown)
VH: B17 VH
VL: B17 VL
notes: VH/VL only
In the case of B18, the binding result in experiment [6] is “binds”.
